Reference: patent US8530235B2, “Medium that supports culture of an oocyte and modulation of granulosa cell apoptosis” (Adelaide Research & Innovation Pty Ltd., priority 2005, dated 2013)

Legend:
cumulus cells = experiment: Cumulus cell apoptosis in oocytectomized complexes (OOX) and COC, TUNEL with confocal microscopy; type: cell-based, Bovine; settings: for effect on incidence of cumulus cell apoptosis: OOX cultured with increasing doses (GDF-9 0-175 ng/ml, BMP-6 0-100 ng/ml, BMP-15 0-20% v/v, 5-50 DO), presence or absence of FSH
Description: Bovine ovaries were collected from local abattoir and transported to the laboratory in warm saline (30-35° C.). Cumulus-oocyte complexes (COC) were aspirated from antral follicles (2- to 8-mm diameter) using an 18-gauge needle and a 10-ml syringe containing ˜2 ml aspiration media (Hepes-buffered Tissue Cultured Medium-199: TCM-199, ICN Biochemicals, Irvine, Calif., USA) supplemented with 50 μg/ml kanamycin (Sigma-Aldrish, St. louis, Mo.), 4 mg/ml fatty acid-free bovine serum albumin (FAF-BSA) (ICPbio ltd, Auckland, NZ). Intact COC with compact cumulus vestment greater than five cell layers and evenly pigmented cytoplasm were selected under a dissecting microscope and washed twice in Hepes-buffered TCM-199 and once in corresponding culturing media.
The cytoplasm of each oocyte was microsurgically removed from the COC (oocytectomy) using a micromanipulator as described in Buccione et al (Buccione et al. (1990) Dev Biol 138, 16-25.). The resulting oocytectomized complex (OOX) consists of a hollow zona pellucida surrounded by several layers of intact CC.
Denuded oocytes (DO) were generated by removing CC from COC by vortexing for approximately 4 minutes in 2 ml H-TCM-199/BSA. Any remaining CC were removed by repeated passage of the oocytes through a fine-bore fire-polished glass pipette in H-TCM-199/BSA.
CC apoptoic DNA was detected using TUNEl (Roche Diagnostic, Penzberg, Germany) according to the manufacturer's instructions. Briefly, following culture COC and OOX complexes were washed twice in PBS (pH 7.4) containing 1% BSA, fixed in 4% paraformaldehyde in PBS (pH 7.4) overnight at 4° C. and washed twice with PBS/BSA before placing on Cell-Tak-coated coverslips (Beckton Dickinson Biosciences, Franklin lakes, N.J.). Complexes were then permeabilized in 0.11/u Triton X-100 in 0.1% sodium citrate for 1 hour at room temperature and washed 3 times in PBS/BSA. The complexes were then incubated in fluorescein-conjugated dUTP and terminal deoxynucleotide transferase (TUNEl reagents, Roche) for 1 hour at 37° C. in the dark. Positive controls were incubated in DNAse 1 (0.005 U/µl), which cleaves all DNA, for 20 minutes at room temperature and washed twice in PBS/BSA before TUNEl. Negative controls were incubated in fluorescein-dUTP in the absence of TdT. After TUNEl, complexes were washed twice in PBS/BSA and counterstained with propidium iodide 0.5 μg/ml (PI) plus RNase A (0.1 mg/ml) for 1 hour at room temperature in the dark to label all nuclei. Complexes were then washed twice in PBS/BSA and mounted with slight coverslip compression in VectaShield anti-bleaching solution (Vector labs, Burlingame, Calif.), and stored in the dark at 4° C. for confocal analysis.
Apoptosis in COC and OOX was visualised and quantified using confocal microscopy. Dual fluorescence emission from CC was detected using a Nikon C1 Confocal Scanning Head and a Nikon TE2000E microscope (Nikon, Tokyo, Japan). Simultaneous emission capture of the apoptotic signal (fluorescein, lacer excitation 488 nm, emission 510-530 nm) and the nuclear signal (propidium iodide, excitation lacer 532, emission 590-640 nm) was performed.
In order to generate an accurate representation of the overall apoptotic incidence for all complexes, the depth of each complex was measured through a Z series to divide the construct into three percentiles (optical Z plane sections) at 25%, 50% and 75%. These optical section images were acquired and saved as independent colour channels (green, apoptotic cumulus fluorescence and red, nuclear cumulus fluorescence). The captured images were then processed in Scanalytics IPlab software Version 3.6. (Scanalytics, Fairfax, Va.). Quantification of CC number (for each colour channel) was independently measured using a macro script utilizing an auto segmentation filter for each optical section percentile (3 optical “z”-plane sections for each complex).

Bcl-2 and Bax proteins = experiment: Western blot of Bcl-2 and Bax expression in OOX cumulus cells; type: cell-based, Bovine; settings: OOX 24 h; for ratio of Bcl-2 to Bax: 132 ng/ml GDF-9, 10% v/v BMP-15 or 35 DO/well
Description: Following culture treatments, OOX complexes were lysed in […] RIPA lysis buffer (10 mM Tris [pH 7.4], 150 mM NaCl, 1 mM EDTA, 1% Trinton X-100 and stored at −80° C., for detection of apoptotic proteins using the sensitive Enhanced Chemiluminescence (ECl) Advance system (Amersham Biosciences, Ontario, Canada). Thawed lysates were mixed with 4× loading buffer containing 100 mM Dithiothretol (DTT) and subjected to SDS-PAGE (12% polyacrylamide gel). Proteins were subsequently electrotransferred to nitrocellulose membranes (Hybond-ECl, Amersham life Science, Ontario, Canada.) in 25 mM Tris-192 mM glycine containing 20% methanol. Blots were blocked in 20 mM Tris (pH 7.6) containing 13.7 mM NaCl, 1% Tween-20, and 2% blocking agent (provided in ECl Advance Kit) for 1 hr at RT, then incubated overnight with Bcl-2 or Bax rabbit polyclonal antibodies (0.35 μg/ml; Santa Cruz Biotechnology, Calif., USA) at 4° C., followed by incubation with horseradish peroxidase-conjugated anti-rabbit antibody (1:200 000; Silemus laboratories, Melbourne, Australia). Images were then scanned using a flat bed scanner and the intensity of Bcl-2 and Bax bands in each sample was quantitated by the ImageJ Imaging System Software version 1.3 (National Institutes of Health, USA).
This experiment was conducted to confirm that treatment effects on CC apoptosis, as assessed by TUNEL, are concomitant with changes in expression of key proteins regulating cell death and survival. OOX were cultured for 24 h untreated, or treated with 132 ng/ml GDF-9, 10% v/V BMP-15, co-cultured with 35 DO/well, or 10% 293H (control conditioned medium), and then subjected to Western blot for analysis of Bcl-2 and Bax expression.

B1: BMP-15: Recombinant ovine BMP-15 produced in-house in transfected 293H cells, partially purified by hydrophobic interaction chromatography; dosed as % v/v (protein, UniProt Q9MZE2 269-393, looked up)
Bone morphogenetic protein 15: QAGSIASEVPGPSREHDGPESNQCSLHPFQVSFQQLGWDHWIIAPHLYTPNYCKGVCPRVLHYGLNSPNHAIIQNLVSELVDQNVPQPSCVPYKYVPISILLIEANGSILYKEYEGMIAQSCTCR
effect on incidence of cumulus cell apoptosis (cumulus cells): significantly reduced | effect on cumulus cell apoptosis (cumulus cells; OOX treated with 100 ng/ml BMP-7 and/or 10% BMP-15): significantly reduced | effect on CC apoptosis, test for additive effect (cumulus cells; OOX treated with DO, 10 ng/ml BMP-6 and/or 10% v/v BMP-15): significantly (P<0.001) decreased | ratio of Bcl-2 to Bax (Bcl-2 and Bax proteins): alter the ratio of Bcl-2 to Bax in favour of cell survival | expression of Bax protein in CC (Bcl-2 and Bax proteins; 10% v/v BMP-15 or 35 DO/well): barely detectable | expression of Bcl-2 protein in CC (Bcl-2 and Bax proteins; 10% v/v BMP-15 or 35 DO/well, compared to untreated or GDF-9): significantly (P<0.001) higher

B2: GDF-9: Recombinant mouse GDF-9 produced in-house in transfected 293H cells, partially purified by HIC (protein, UniProt Q07105 307-441, looked up)
Growth/differentiation factor …: GQKAIRSEAKGPLLTASFNLSEYFKQFLFPQNECELHDFRLSFSQLKWDNWIVAPHRYNPRYCKGDCPRAVRHRYGSPVHTMVQNIIYEKLDPSVPRPSCVPGKYSPLSVLTIEPDGSIAYKEYEDMIATRCTCR
effect on incidence of cumulus cell apoptosis (cumulus cells): no significant effect | ratio of Bcl-2 to Bax (Bcl-2 and Bax proteins): no effect
